{
  "source": "paper PMC11569192",
  "about": "(Nature Communications, 2024)",
  "molecules": {"B1": {"name": "A4 scFv-Fc (scFv, V domains shown)", "VH": "EVQLVESGGGLVQPGGSLRLSCAASGFTFTTYAMHWVRQSPGKGLEWLASISYDGTSQYYAESVKGRFTVSRDNSKKTLLLQVNSLRPEDTAVYYCAGSPSGHYSWLGYFYAMDVWGQGTLVTVSS", "VL": "QSALTQPASVSGSPGQSITISCTGASSDVGGYDYVSWYQQHPGKAPKLLIYDVSDRPSGVSNRFSGSKSGNTASLTISGLQTEDEADYYCSSYTSKNTLIFGGGTKLTVL"}, "B2": {"name": "MPE8 IgG (antibody, V domains shown)", "VH": "EVQLVESGGGLVKPGGSLRLSCAASGFTFSSYSMNWVRQAPGKGLEWVSSISASSSYSDYADSAKGRFTISRDNAKTSLFLQMNSLRAEDTAIYFCARARATGYSSITPYFDIWGQGTLVTVSS", "VL": "QSVVTQTPSVSGAPGQRVTISCTGSSSNIGAGYDVHWYQQLPGTAPKLLIYDNNNRPSGVPDRFSASKSGTSASLAITGLQAEDEADYYCQSYDRNLSGVFGTGTKVTVL"}, "B3": {"name": "MPE8 Fab (Fab, V domains shown)", "VH": "B2 VH", "VL": "B2 VL"}},
  "key": {"[1]": {"target": "DS-Cav1 (respiratory syncytial virus subtype A, strain A2 | not stated) (UniProt P03420)", "assay": "SEC"}, "[2]": {"target": "DS-Cav1-His6 (respiratory syncytial virus subtype A, strain A2 | not stated) (UniProt P03420)", "assay": "SEC"}, "[3]": {"target": "DS-Cav1-His6 (respiratory syncytial virus subtype A, strain A2 | not stated) (UniProt P03420)", "assay": "cross-linking"}, "[4]": {"target": "DS-Cav1-His6 (respiratory syncytial virus subtype A, strain A2 | not stated) (UniProt P03420)", "assay": "negative-stain EM"}, "[5]": {"target": "SC-TM-His6 (respiratory syncytial virus subtype A, strain A2 | not stated) (UniProt P03420)", "assay": "SEC"}, "[6]": {"target": "SC-TM-His6 (respiratory syncytial virus subtype A, strain A2 | not stated) (UniProt P03420)", "assay": "cross-linking"}, "[7]": {"target": "sc9-10 DS-Cav1 (respiratory syncytial virus subtype A, strain A2 | not stated) (UniProt P03420)", "assay": "SEC"}, "[8]": {"target": "sc9-10 DS-Cav1-His6 (respiratory syncytial virus subtype A, strain A2 | not stated) (UniProt P03420)", "assay": "SEC"}, "[9]": {"target": "sc9-10 DS-Cav1-His6 (respiratory syncytial virus subtype A, strain A2 | not stated) (UniProt P03420)", "assay": "cross-linking"}, "sc9-10 DS-Cav1": {"target": "T1, sc9-10 DS-Cav1 (Human respiratory syncytial virus A, …, S215P | A149C | Y458C | S46G | K465Q)", "T1 chain": "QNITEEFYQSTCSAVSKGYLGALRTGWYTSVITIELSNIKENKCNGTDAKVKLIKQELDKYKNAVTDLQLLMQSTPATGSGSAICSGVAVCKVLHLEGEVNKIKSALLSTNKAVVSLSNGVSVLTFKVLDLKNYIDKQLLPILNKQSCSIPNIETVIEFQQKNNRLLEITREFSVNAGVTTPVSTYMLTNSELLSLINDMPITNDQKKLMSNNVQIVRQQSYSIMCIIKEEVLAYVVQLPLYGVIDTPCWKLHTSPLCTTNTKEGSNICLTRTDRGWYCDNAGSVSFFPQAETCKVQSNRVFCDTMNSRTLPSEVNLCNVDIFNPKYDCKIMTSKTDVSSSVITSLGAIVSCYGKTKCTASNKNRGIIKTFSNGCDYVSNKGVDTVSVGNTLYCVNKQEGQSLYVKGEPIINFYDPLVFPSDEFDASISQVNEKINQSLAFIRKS", "assay": "cell-based or functional assay"}, "UFCM1": {"target": "UFCM1 (human metapneumovirus, Q1A2Z0 …, UniProt Q1A2Z0, E80D | T127C | N153C | A185P)", "assay": "ELISA"}, "UFCM1-P2": {"target": "UFCM1-P2 (human metapneumovirus, Q1A2Z0 …, UniProt Q1A2Z0, E80D | T127C | N153C | A185P | V155P)", "assay": "ELISA"}, "847A-His6": {"target": "847A-His6 (human respiratory syncytial virus A, …, UniProt A0A7D5GVC1, I148C | D486S)", "assay": "ELISA"}, "UFCM1-P2-iSS": {"target": "T2, UFCM1-P2-iSS (Human metapneumovirus, strain NL/1/00 …, stabilised)", "T2 chain": "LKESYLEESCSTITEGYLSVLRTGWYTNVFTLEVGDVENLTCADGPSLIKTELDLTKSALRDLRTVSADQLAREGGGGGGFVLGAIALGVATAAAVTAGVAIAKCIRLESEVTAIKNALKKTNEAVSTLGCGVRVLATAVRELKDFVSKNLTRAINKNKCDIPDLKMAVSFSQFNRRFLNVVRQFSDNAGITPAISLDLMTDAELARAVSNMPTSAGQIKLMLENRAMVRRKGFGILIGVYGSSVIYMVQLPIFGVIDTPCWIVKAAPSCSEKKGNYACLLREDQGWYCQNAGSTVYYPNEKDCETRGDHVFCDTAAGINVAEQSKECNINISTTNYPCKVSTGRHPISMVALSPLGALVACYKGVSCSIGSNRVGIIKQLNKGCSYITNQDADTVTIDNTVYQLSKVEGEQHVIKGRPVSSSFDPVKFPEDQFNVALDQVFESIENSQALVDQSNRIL", "assay": "negative-stain EM"}},
  "data": [
    {"molecule": "DS-Cav1 (from UniProt P03420 137-513) (domain or fragment)", "values": [
      {"measurement": "stoichiometry N", "setting": "[1]", "result": 3}
    ]},
    {"molecule": "DS-Cav1-His6 (from UniProt P03420 137-513) (domain or fragment)", "values": [
      {"measurement": "stoichiometry N", "setting": "[2]", "result": 3},
      {"measurement": "stoichiometry N", "setting": "[3]", "result": 3},
      {"measurement": "stoichiometry N", "setting": "[4]", "result": 3}
    ]},
    {"molecule": "SC-TM-His6 (from UniProt P03420 26-513) (domain or fragment)", "values": [
      {"measurement": "stoichiometry N", "setting": "[5]", "result": 3},
      {"measurement": "stoichiometry N", "setting": "[6]", "result": 3}
    ]},
    {"molecule": "sc9-10 DS-Cav1 (from UniProt P03420 26-513) (domain or fragment)", "values": [
      {"measurement": "stoichiometry N", "setting": "[7]", "result": 3}
    ]},
    {"molecule": "sc9-10 DS-Cav1-His6 (from UniProt P03420 26-513) (domain or fragment)", "values": [
      {"measurement": "stoichiometry N", "setting": "[8]", "result": 3},
      {"measurement": "stoichiometry N", "setting": "[9]", "result": 3}
    ]},
    {"molecule": "B1", "values": [
      {"measurement": "live RSV (RSV-A2-GFP) neutralization, IC50, scFv-Fc form", "setting": "sc9-10 DS-Cav1", "result": 2.1, "unit": "ng/mL"}
    ]},
    {"molecule": "B2", "values": [
      {"measurement": "binding result", "setting": "UFCM1", "result": "binds"},
      {"measurement": "binding result", "setting": "UFCM1-P2", "result": "binds"},
      {"measurement": "binding result", "setting": "847A-His6", "result": "binds"}
    ]},
    {"molecule": "B3", "values": [
      {"measurement": "stoichiometry N", "setting": "UFCM1-P2-iSS", "result": 3, "unit": "Fabs per trimer"}
    ]}
  ]
}
